Measured values reported in publication PMC6248932.

Columns and labels:
[1] = target: BG505 UFO gp140 trimer (HIV-1 (clade A, strain BG505)); test: native gel or EMSA
[2] = target: BG505 UFO gp140 trimer (HIV-1 (clade A, strain BG505)); test: SEC
[3] = target: BG505 SOSIP.664 gp140 trimer (HIV-1 (clade A, strain BG505)) (UniProt Q2N0S6); test: native gel or EMSA
[4] = target: BG505 SOSIP.664 gp140 trimer (HIV-1 (clade A, strain BG505)) (UniProt Q2N0S6); test: SEC
[5] = target: clade B tier 3 H078.14 UFO-BG gp140 trimer (HIV-1 (clade B, strain H078.14) | HIV-1 (clade A, strain BG505)); test: crystal structure

BG505 UFO gp140 trimer
stoichiometry N [1]: 3 | stoichiometry N [2]: 3

BG505 SOSIP.664 gp140 trimer (from UniProt Q2N0S6 31-505) (complex)
stoichiometry N [3]: 3 | stoichiometry N [4]: 3

clade B tier 3 H078.14 UFO-BG gp140 trimer
stoichiometry N [5]: 3
